Where a SMILES comes first, the peptide text is derived from it. Bridges are numbered along the chain shown (N, C = ends). [ ]: non-standard residue; d: D form. The star is where a group is joined. DOTA = O=C(O)CN1CCN(CC(=O)O)CCN(CC(=O)*)CCN(CC(=O)O)CC1; dPhe(4-NHCONH2) = NC(=O)Nc1ccc(C[C@@H](N)C(=O)O)cc1; Dihydroorotyl(S) = O=C1C[C@@H](C(=O)*)NC(=O)N1; Phe(4-Cl) = N[C@@H](Cc1ccc(Cl)cc1)C(=O)O; Phe(4-NH2) = Nc1ccc(C[C@H](N)C(=O)O)cc1
System: patients with progressive, SSTR-positive NETs
Assay: Patient-specific image-based dosimetry (NUKDOS) of tumours and organs, phase I/II trial
Assay type: in vivo, human
Settings: median (range)
Experimental: In both parts A and B of the study, patients underwent planar whole-body imaging at 4 h and 1, 2, 3, and 6 days after each [^177Lu]Lu-satoreotide tetraxetan treatment cycle. Patients in part A also underwent single-photon emission computed tomography/computed tomography (SPECT/CT) at 24 h after each [^177Lu]Lu-satoreotide tetraxetan cycle. Those in part B underwent SPECT/CT, immediately before or after planar scintigraphy, at 4 h, and 1, 2, 3, and 6 days after each [^177Lu]Lu-satoreotide tetraxetan administration. Full details of the image acquisition methodology are provided in the Supplementary Information.
Delineation of tumour volumes was performed on anatomical SPECT/CT images after each [^177Lu]Lu-satoreotide tetraxetan administration. Tumours with a longest diameter < 2 cm were not analysed due to the difficulty in correcting for partial volume effects caused by the limited spatial resolution of the SPECT/CT systems. For study inclusion in part A, one tumour lesion ≥ 2 cm must have been present for eligibility; in part B, two or more tumour lesions ≥ 2 cm must have been present, each with an uptake on SSTR imaging higher than that of normal liver parenchyma (target lesion on [^68Ga]Ga-DOTA-TATE or -DOTA-TOC positron emission tomography: maximum standardised uptake value [SUVmax] ≥ 2x the mean SUV [SUVmean] of liver background; or ^111In-scintigraphy/SPECT: Krenning score 3 or 4 [uptake > normal liver, or uptake > spleen or kidneys, respectively [26]]).
Reconstruction parameters were set up to produce isotropic voxels of < 5 mm; voxels were continuous throughout the field of view. Anatomic coverage of the acquisition was determined according to the patients’ tumour locations on the planar whole-body scan acquisition with liver, both kidneys and spleen in the same bed position. For organs showing [^177Lu]Lu-satoreotide tetraxetan uptake, regions of interest (ROIs)/volumes of interest (VOIs) were drawn manually over the whole organs of interest (whole body, left and right kidneys, liver, spleen, and bone marrow), using the NUKDOS software for planar whole-body scans and the SPECT/CT acquired in part A [27]. VOIs for the same organs were drawn for all SPECT/CT images acquired in part B. All ROIs/VOIs were then used for activity quantification. Time-integrated activity coefficients (TIACs) for a given source volume were computed by integrating the time-activity curves. Full details of the tumour delineation and activity quantification methodology are provided in the Supplementary Information.
Patient-specific dosimetry calculations were performed after each treatment cycle in both parts A and B, using the absorbed dose calculation features of the NUKDOS software for image-based dosimetry calculations. The NUKDOS software was chosen as it allowed for an integral approach to organ dosimetry (including image quantification, time-activity curve-fitting and dosimetry calculation). For the bone marrow, both image-based and blood-based calculations were performed in part A [28, 29]. In part B, only image-based bone marrow dosimetry was performed. Organ Level INternal Dose Assessment/EXponential Modelling (OLINDA/EXM) version 1.0 software, the most widely used version at the time of the study, was used to perform model-based dosimetry calculations, which were only performed after the first [^177Lu]Lu-satoreotide tetraxetan cycle for patients in part B. To generate organ-specific absorbed doses, TIACs were used as input data. Full details on OLINDA/EXM software settings and organ-specific TIAC calculation methods are provided in the Supplementary Information.
All images were acquired with a 20% energy window around the main photopeak of ^177Lu (208 keV). For scatter correction, the triple-energy window method was applied based on the recommendation of the Committee on Medical Internal Radiation Dose. Whole-body images were acquired with a scanning time of 20 cm/min in a 256 × 1,024 matrix. […]

[1] = Part A (4.5 GBq, 300 µg), image-based dosimetry, n = 11
[2] = Part A (4.5 GBq, 300 µg), n = 7
[3] = Part A (4.5 GBq, 300 µg), n = 9
[4] = Part A (4.5 GBq, 300 µg), n = 11
[5] = Part A (4.5 GBq/cycle), image-based dosimetry, n = 10
[6] = Part A (4.5 GBq/cycle), n/n-les 9/16
[7] = Part A and B, image-based dosimetry, n = 21
[8] = Part B Cohort 1 (6.0 GBq, reduced to 4.5 GBq after three patients; 300 µg), n = 6
[9] = Part B Cohort 1, image-based dosimetry, n = 1
[10] = Part B Cohort 3 (4.5 GBq, 300 µg), n = 9

With `C[C@@H](O)[C@@H]1NC(=O)[C@H](CCCCN)NC(=O)[C@@H](Cc2ccc(NC(N)=O)cc2)NC(=O)[C@H](Cc2ccc(NC(=O)[C@@H]3CC(=O)NC(=O)N3)cc2)NC(=O)[C@H](NC(=O)[C@H](Cc2ccc(Cl)cc2)NC(=O)CN2CCN(CC(=O)O)CCN(CC(=O)O)CCN(CC(=O)O)CC2)CSSC[C@@H](C(=O)N[C@H](Cc2ccc(O)cc2)C(N)=O)NC1=O` [[^177Lu]Lu-satoreotide tetraxetan, metal not drawn] ({DOTA}-[Phe(4-Cl)][dC][Phe(4-NH2)](Dihydroorotyl(S))[dPhe(4-NHCONH2)]KTC[dY]-NH2; disulfide 2-7 (inferred); C-terminus assumed) the “Cycle 1 ADC, Bone marrow” value [1] was 0.1 (0.0–0.2) Gy/GBq, the “Cycle 3 ADC, Bone marrow” value [1] was 0.1 (0.0–0.2) Gy/GBq and the “Cycle 1 ADC, Liver” value [2] was 0.2 (0.1–0.3) Gy/GBq. For the same compound, the “Cycle 3 ADC, Liver” value [2] was 0.2 (0.1–0.4) Gy/GBq, the “Cycle 1 ADC, Spleen” value [3] was 0.8 (0.2–1.8) Gy/GBq and the “Cycle 3 ADC, Spleen” value [3] was 0.5 (0.3–1.0) Gy/GBq. For the same compound, the “Cycle 1 ADC, Kidneys” value [4] was 1.1 (0.5–1.9) Gy/GBq, the “Cycle 1 ADC, Tumours” value [4] was 2.6 (0.4–14.3) Gy/GBq and the “Cycle 3 ADC, Kidneys” value [4] was 1.0 (0.7–1.8) Gy/GBq. For the same compound, the “Cycle 3 ADC, Tumours” value [4] was 1.7 (0.3–5.0) Gy/GBq, the “Ratio of ADCs Cycle 2/Cycle 1 (300 vs. 300 µg), Bone marrow” value [5] was 89.5 (54.7–152) % and the “Ratio of ADCs Cycle2/Cycle 3 (300 vs. 300 µg), Bone marrow” value [5] was 109 (23.9–297) %. The “Ratio of ADCs Cycle 2/Cycle 1 (300 vs. 300 µg), Spleen” value (Part A (4.5 GBq/cycle), n = 9) was 93.0 (50.0–270) %, the “Ratio of ADCs Cycle2/Cycle 3 (300 vs. 300 µg), Spleen” value (Part A (4.5 GBq/cycle), n = 9) was 127 (81.1–334) % and the “Ratio of ADCs Cycle 2/Cycle 1 (300 vs. 300 µg), Body” value (Part A (4.5 GBq/cycle), n = 11) was 108 (38.3–142) %. For the same compound, the “Ratio of ADCs Cycle 2/Cycle 1 (300 vs. 300 µg), Kidney” value (Part A (4.5 GBq/cycle), n = 11) was 116 (55.8–140) %, the “Ratio of ADCs Cycle2/Cycle 3 (300 vs. 300 µg), Body” value (Part A (4.5 GBq/cycle), n = 11) was 95.4 (69.5–119) % and the “Ratio of ADCs Cycle2/Cycle 3 (300 vs. 300 µg), Kidney” value (Part A (4.5 GBq/cycle), n = 11) was 101 (80.6–179) %. The “Ratio of ADCs Cycle 2/Cycle 1 (300 vs. 300 µg), Liver lesions” value [6] was 91.8 (28.6–156) %, the “Ratio of ADCs Cycle2/Cycle 3 (300 vs. 300 µg), Liver lesions” value [6] was 127 (73.3–343) % and the “Ratio of ADCs Cycle2/Cycle 3 (300 vs. 300 µg), All lesions” value (Part A (4.5 GBq/cycle), n/n-les 11/23) was 125 (73.3–343) %. For the same compound, the “Ratio of ADCs Cycle 2/Cycle 1 (300 vs. 300 µg), All lesions” value (Part A (4.5 GBq/cycle), n/n-les 11/24) was 83.4 (28.6–156) %, the “Cycle 3 ADC, Bone marrow” value [7] was 0.1 (0.0–0.2) Gy/GBq and the “Ratio of Cycle 3/ Cycle 1 ADCs, Bone marrow” value [7] was 105 (22.4–400) %. The “Cycle 1 ADC, Bone marrow” value (Part A and B, image-based dosimetry, n = 29) was 0.1 (0.0–0.6) Gy/GBq, the “Ratio of Cycle 3/ Cycle 1 ADCs, Liver” value (Part A and B, n = 7) was 88.5 (43.8–132) % and the “Ratio of Cycle 3/ Cycle 1 ADCs, Spleen” value (Part A and B, n = 18) was 83.2 (40.9–231) %. The “Ratio of Cycle 3/ Cycle 1 ADCs, Tumours” value (Part A and B, n = 23) was 78.6 (16.0–195) %, the “Ratio of Cycle 3/ Cycle 1 ADCs, Kidneys” value (Part A and B, n = 25) was 98.6 (59.1–198) % and the “Cycle 3 ADC, Liver” value (Part A and B, patient-specific dosimetry, n = 7) was 0.2 (0.1–0.4) Gy/GBq. For the same compound, the “Cycle 1 ADC, Liver” value (Part A and B, patient-specific dosimetry, n = 8) was 0.2 (0.1–0.3) Gy/GBq, the “Cycle 3 ADC, Spleen” value (Part A and B, patient-specific dosimetry, n = 19) was 0.7 (0.3–1.5) Gy/GBq and the “Cycle 3 ADC, Tumours” value (Part A and B, patient-specific dosimetry, n = 24) was 4.0 (0.3–70.3) Gy/GBq. For the same compound, the “Cycle 3 ADC, Kidneys” value (Part A and B, patient-specific dosimetry, n = 26) was 0.8 (0.4–1.8) Gy/GBq, the “Cycle 1 ADC, Spleen” value (Part A and B, patient-specific dosimetry, n = 27) was 0.8 (0.2–1.8) Gy/GBq and the “Cycle 1 ADC, Tumours” value (Part A and B, patient-specific dosimetry, n = 33) was 5.0 (0.4–83.3) Gy/GBq. The “Cycle 1 ADC, Kidneys” value (Part A and B, patient-specific dosimetry, n = 35) was 0.9 (0.4–1.9) Gy/GBq, the “Ratio of Cycle 3/ Cycle 1 ADCs, Bone marrow” value (Part A, image-based dosimetry, n = 11) was 101 (22.4–302) % and the “Ratio of Cycle 3/ Cycle 1 ADCs, Liver” value (Part A, n = 7) was 88.5 (43.8–132) %. For the same compound, the “Ratio of Cycle 3/ Cycle 1 ADCs, Spleen” value (Part A, n = 9) was 61.5 (40.9–231) %, the “Ratio of Cycle 3/ Cycle 1 ADCs, Kidneys” value (Part A, n = 11) was 106 (59.1–139) % and the “Ratio of Cycle 3/ Cycle 1 ADCs, Tumours” value (Part A, n = 11) was 76.7 (16.0–195) %. For the same compound, the “Cycle 1 ADC, Bone marrow” value (Part B Cohort 1 (6.0 GBq, reduced to 4.5 GBq after three patients; 300 µg), image-based dosimetry, n = 6) was 0.1 (0.1–0.6) Gy/GBq, the “Cycle 1 ADC, Liver” value (Part B Cohort 1 (6.0 GBq, reduced to 4.5 GBq after three patients; 300 µg), n = 1) was 0.2 (0.2–0.2) Gy/GBq and the “Cycle 1 ADC, Tumours” value (Part B Cohort 1 (6.0 GBq, reduced to 4.5 GBq after three patients; 300 µg), n = 5) was 3.9 (1.9–83.3) Gy/GBq. The “Cycle 1 ADC, Kidneys” value [8] was 0.7 (0.6–1.0) Gy/GBq, the “Cycle 1 ADC, Spleen” value [8] was 1.0 (0.5–1.1) Gy/GBq and the “Cycle 3 ADC, Bone marrow” value [9] was 0.1 (0.1–0.1) Gy/GBq. For the same compound, the “Ratio of Cycle 3/ Cycle 1 ADCs, Bone marrow” value [9] was 64.3 (64.3–64.3) %, the “Cycle 3 ADC, Kidneys” value (Part B Cohort 1, n = 1) was 0.7 (0.7–0.7) Gy/GBq and the “Cycle 3 ADC, Spleen” value (Part B Cohort 1, n = 1) was 0.5 (0.5–0.5) Gy/GBq. The “Ratio of Cycle 3/ Cycle 1 ADCs, Kidneys” value (Part B Cohort 1, n = 1) was 111 (111–111) %, the “Ratio of Cycle 3/ Cycle 1 ADCs, Spleen” value (Part B Cohort 1, n = 1) was 82.3 (82.3–82.3) % and the “Cycle 1 ADC, Bone marrow” value (Part B Cohort 3 (4.5 GBq, 300 µg), image-based dosimetry, n = 6) was 0.1 (0.1–0.1) Gy/GBq. For the same compound, the “Cycle 1 ADC, Spleen” value (Part B Cohort 3 (4.5 GBq, 300 µg), n = 6) was 1.0 (0.2–1.5) Gy/GBq, the “Cycle 1 ADC, Kidneys” value [10] was 0.9 (0.5–1.2) Gy/GBq and the “Cycle 1 ADC, Tumours” value [10] was 6.8 (2.1–28.2) Gy/GBq. The “Cycle 3 ADC, Bone marrow” value (Part B Cohort 3 (4.5 GBq, 300 µg; 700 µg at cycle 2), image-based dosimetry, n = 6) was 0.1 (0.0–0.1) Gy/GBq and the “Cycle 3 ADC, Spleen” value (Part B Cohort 3 (4.5 GBq, 300 µg; 700 µg at cycle 2), n = 5) was 0.8 (0.3–1.1) Gy/GBq.

Reference: PMC11178655, “Dosimetry and pharmacokinetics of [^177Lu]Lu-satoreotide tetraxetan in patients with progressive neuroendocrine tumours” (European Journal of Nuclear Medicine and Molecular Imaging, 2024)
